The domain aggregation screens of Martell et al. (2025)

Assay: soluble fraction after stress (log2 fold change); higher = more stays soluble; pooled small domains, quantitative proteomics
Conditions: stress: 50 degC
In short: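 Each library was heated to 50°C as a stress step. The libraries, made up of small protein domains, were pooled and analysed at high throughput by quantitative proteomics. The reported value is the base-two logarithm of the fold change in each protein's soluble amount after stress, taken as a measure of aggregation propensity. The higher the value, the more protein stays in solution.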

Going from “HMLIGLNETESLVLDALIANPMRIDQVSAMLKKDVATTLKFLGGLSVRGLVETLFGGRFAPTKIALHARS” to “HMVGQIISNARKQEKMTQSELAEKVGTNKTYISRIEKGVIEPGVGLFFRIIDALGLKIEIVKP”, the “soluble fraction (log2)” value falls from -0.276 to -1.25.

“HMTPTFSNQDLIKAGLAGSPVAKRRRERLGELLGIGYGNAKQLLKRLDLFAIDRPTFERAVAQLDQEGK” and “HMADYYSILGLTKNATDIEIKSAFRKLAKIYHPDKNPDPNARVLFEHILKAYDTLINPHSRRRYDSL” are within 0.2 log units of each other in “soluble fraction (log2)” value: -0.161 for the first, -0.349 for the second.

First: HMIKRDLAFSEFIAEVKAGQVREVTIKGNSISGNLNDGREFNTYAPNDPNLVKTLTDQGVLIRAIPLE
Second: HMNLGAHVYWRNHRAYGDFREYEDVGGGREALALPGSTWGTKDPRVAQALFAARLTEFQEARVGR
The “soluble fraction (log2)” value of the first is higher: -0.0273 for the first, -1.05 for the second.

“HMSQIILSARSGHAALRHRLGELGYTFADKEFDDIYERFLEVADQKKEVYDEDLESIVQERQRD” and “HMNQRTATVTASQLNVRSGPSTAYSIVHVLRQGETVEVIGESDGWYQIRLKDGRVGWSSGQYLNLN” are within 0.2 log units of each other in “soluble fraction (log2)” value: 0.0537 for the first, 0.0784 for the second.

First: HMKKAITMGDIITVKELSEKIGIQVAEIIKKLMGLGILATINKELDYDTANVIASEFHIELERK
Second: HMVVKLTQEQDRFIKTFNDKSLAFYYISSWGWGSFLRNGIGGVYEGDKTPFTLDEKEKMLNAIINGYEVI
The “soluble fraction (log2)” value of the first is higher: -0.00712 for the first, -1.82 for the second.

Going from “HMFYNDLINFDVFRDSRKIGKIENINSRLPQPVFEIMYDSRIVLIPIHEDFIRKIDKVNNIIYLDIPDGLL” to “HMAKRPRFEDVIKEINTEIQKRKGKWNLTILSWMDFDDVAQVIRIHIYRKWHLYDPSKPLGPWLNR”, the “soluble fraction (log2)” value rises from -1.72 to 0.0232.

Going from “HMSSPVGIAQATTYVYVRAGHSMQAAKVGVLSPGEKVGVTGRSAQGFSEVVYNGVHRWVGSRYLSPT” to “HMFEQRLRQAMKELRLKQVQVAGLTGKSRGAISQYLSGDRVPPDGVQREMAIALGLEADYFSR”, the “soluble fraction (log2)” value rises from -1.4 to -0.408.

First: HMLGFELVGIRGNNPESTIIILERDDYRLVEQGQNINSSVIFSHIDGSRAYFFDGQTYTFLDI
Second: HMSIAKIIGDRIRAYRNQKGWSQEYLAEKADVHHTYIGQLERGEKNATIESISKIAGALGVSLSRLFEN
The “soluble fraction (log2)” value of the first is lower: -2.95 for the first, -0.0998 for the second.

“HMNDNFTPDDLNRLARIKDLPQAKKYALELISNKSAKPMKPEKVRWFANQLQKKKSVMDITKMMYDLLLA” and “HMIDQIAEQLQQRLAVDTAFATIQRDYPDVIANKDIELLTAIKVNQKIAEGASRASAMLESAKEVYETL” are within 0.2 log units of each other in “soluble fraction (log2)” value: -0.0441 for the first, -0.0203 for the second.

Going from “HMLDEKAVRQYLLNTLENSEIKMDRQAIDLFLRLTDLDLSKMMRELQKILLYGQEQEVITVKEIEQ” to “HMNEIALETAIEDVESFIQMQNRNLAFSIDEDTDRAVVTVRDSDSGDVIRQIPSEEVLALAERIQDLQQD”, the “soluble fraction (log2)” value rises from -0.856 to 0.136.

Going from “HMATPSTGQVSVVRLNLRVSPSISSPVVTRLTQGDTVKILAASDDGRWYKVATADGRTGWLYTIYITAE” to “HMDDVGYLRKRLQQALAQLSDDLRNTYTLFQIGKQSIKQIAAETGASESLVKVRIHRAKQKLQELLADLQ”, the “soluble fraction (log2)” value falls from -0.37 to -0.987.

Compared with “HMDENTEQESQTVVVPDVTGKSLSEAASILREAGLDYLAEQTGTVVTKQMPLPDAEVLINTTVLLYTDSE”, “HMTPGPFLVYITGAVERPNVLVTLDYGSRVIDALNAAGGSRIDANLDLVNLAQRLVDGDQIHVPTLR” is lower in “soluble fraction (log2)” value: 0.0118 for the first, -1.28 for the second.

Compared with “HMQNLISSDEAKNIALQHANLTDNQVTFIKVSKDYDDGIHIYEVEFHYNNREYNYDINAINGTILSYEQ”, “HMYSKVSFTVSVGMTSERVSASLKALGIIDDSAKFNRYLVSNGYSTRIKVGTVELQAGQSYAEIASKLV” is lower in “soluble fraction (log2)” value: -0.574 for the first, -0.826 for the second.

Going from “HMTKTFDSPEDADNDVLAKTLFQIFGVQSVYLKENFVTITKSNSVGWHTLMEKTGHTLEEHLKF” to “HMDSTDSIIHYVRAHRSLEVKNLSFAEARFKKVVELEPNFARGWLGLGEVSILKNNFENASIYLDKALE”, the “soluble fraction (log2)” value falls from 0.0987 to -0.463.

“HMDRVSEITLTRLRDYAADGQVRTATLTHRTNVVTGTLRDGRRFSAGVPPMYGDELTTFLLDNGVRVDSDN” and “HMESMIGSLRGRLLELFGDGEVLIEVGGVGYRVIVTPTTTVRLGDVGGDVFVHVHHHIREADQTLYGF” are within 0.2 log units of each other in “soluble fraction (log2)” value: -0.167 for the first, -0.234 for the second.

First: HMQTSETVYTTDKVNVRAGADTSSDKLGSVEKGTSLTRTGTDGDWSIIDYNGTTGYIKSEYLSATAPE
Second: HMNKMIDAPDLTGLSLEDAKLVLEANKLQLGTVSHEPSDKPEDVVISQDPMEGQEIQQGGKVNLVVSYGD
The “soluble fraction (log2)” value of the first is higher: 0.133 for the first, -0.0696 for the second.

“HMKNIINFIVKEDDNNKRVDMILANHDKSLSRTRVKNLILDSKLKINERIVQDPSIKTKLNDKIELEIVEP” and “HMTNEPRLTNMGFNKMLIENYKMILEYQDFFIRISTQIGIININGFDLKLGEMTADEVLVTGKIESIDL” are within 0.2 log units of each other in “soluble fraction (log2)” value: 0.611 for the first, 0.53 for the second.

First: HMVEDFSEVLLQYIREQGGAIALNDKTDAGVIYDTFGVSKKTFKKAVGDLYKKRLIVLGDEGIRLA
Second: HMEETLRALAKKISEKVLKSGRSTTLEPMNPYERRIIHSAVSEIEGVSSKSVGEEPYRKVVISSDNP
The “soluble fraction (log2)” value of the first is lower: -0.619 for the first, 0.0364 for the second.

First: HMEEPFRIEKKGDIYYISGKTVERLVAMTDLDNDSAVKRLQRTLKRMGVEDALREHGINPGDTVVIGNYEF
Second: HMDEVPMPPEYQYLRVGSRVHHATFGWGKVTRLSQPWPQTRAEVFFENIGPKKLVLAHAHLTMD
The “soluble fraction (log2)” value of the first is higher: -0.0245 for the first, -0.727 for the second.

“HMKKPRKTSRKSIENAAIFYLQRFSSSIENLRRVLMRRVYRSAQYHNTKPEEDAKIVDSIIYRLIETGVL” and “HMGAQKITIPDFSNQEATQVYAELKNMGLEYTESRMNHPSIASGYVIKTEPTKGSEVKAGTTVTVYVSLG” are within 0.2 log units of each other in “soluble fraction (log2)” value: -0.0617 for the first, -0.0535 for the second.

Compared with “HMDRSQRDQEQAQLIRLVQQAFDDSGQRYGAEKIRITLAEGGIRVSTKRIAAIMQELDLRSI”, “HMNNLLEDIKARLMAQAEAGGHIDTETELAEHFGVTRYRIRKELDLLSQMGLLRRQPKNGIEVLTV” is higher in “soluble fraction (log2)” value: -1.36 for the first, -0.106 for the second.

Going from “HMIDENILSEEIKHYIETNNYAKDDKLPSERSLASLFNVSRALVRKSLISLVDVNYLYVKDKSGYYING” to “HMRKIGDVLRLHAGGLSKRRIAVSLNIGRTAVGDYISRARRAGLGWPLPEDLSEEALERLLFPPP”, the “soluble fraction (log2)” value falls from -0.0735 to -2.59.

First: HMNRETAISIYRILHILEEPYKEVFTLRTLGDLSYREIADIFGKQENWARVTYHRAKLKIREALVS
Second: HMNTVAGAISDLSFKVRGSEDIEKLNRLKALSIQAKLDVQGQEEAERLISELEAKYGSLGMTVDKVSGKIA
The “soluble fraction (log2)” value of the first is lower: -2 for the first, 0.158 for the second.

First: HMGRMSLDEAKAVILPIGEHKGHTMGEVLAIKPGLIDFYASQKFNSGKYPYLKEAAQVILENQG
Second: HMQVTDTGTIEGEIDKVLAANPDRVTEYHDGKEKILGWFVGQVMQTTKGKANPQMVNQLFLEKLK
The “soluble fraction (log2)” value of the first is lower: -0.109 for the first, 0.142 for the second.

Compared with “HMELSESLENYLVVIYEAHLRNEIARIKDMTASLSVKHTSAIDAIKKLEDLGIVNYEKRGFVKLTQSGIEK”, “HMQMTTPQMVPLFTDLSVDDSASIIKDLERQAVPYQIKSDGAIIMVPKDKVTRLRMKLAESGLPK” is higher in “soluble fraction (log2)” value: 0.0501 for the first, 0.25 for the second.

First: HMLTPQEIGSRLKLVRQGLQLKQQEVAEIIGTSQLKISKIEQGATVTTPDFLKLLAFYSQSVSLDILF
Second: HMQNREQNILDGKSILDKELKRVGLLNQSAAIMAQEMKFNSQDDLFAALGSGATRIGQIINHLQKQS
The “soluble fraction (log2)” value of the first is lower: -0.564 for the first, -0.00642 for the second.

First: HMHEIVDTVLQVKQSVEADPLIAPALKNKEIVFQLNAKGVFQFKNAVIQVASALGISKNTVYMHLRNNK
Second: HMPQEMIEILATPNGWLRVRQGPGTNYPEITKVNSGEEFPLLEEKDSWFKIRIEEGQEGWISSQYAQKEE
The “soluble fraction (log2)” value of the first is lower: -1.89 for the first, -0.0402 for the second.

Going from “HMAPELSGEKLWDAQDVAMFLRVKPTTVWSYVSRDGFPAPVSQAGRAGMWSEPLVVQWYLSRPG” to “HMIYAEDFVGRQGTANTILRPSGRIEIEGEVYDAYTRGEYVEAGERVVVISQEGSTLKVRVV”, the “soluble fraction (log2)” value falls from -0.223 to -0.683.

First: HMPDYAFEGVVIKLTHRDYDRWKAGFPDVDLPPYLTARDAWLSEQTPADRKNWFVSTATDLRNFQKREAI
Second: HMAESNQIQLSDVREALNMIGPASWLDLVHYLDTGKGRGGQRLRRMLKSLSRSGEIELVARGTYQITDN
The “soluble fraction (log2)” value of the first is lower: -1.66 for the first, -0.422 for the second.

First: HMKQTFGAMLAALRKEKGMTQLELAEQMGVTDKAVSKWERDLSFPDVTSLPRLAEILEVSVDELMQ
Second: HMKTLLSMNIKNLRKKKNMTLEELAEKVGTSKQTIQRYESGKISNIPSDKIELLAKYLDTTPAKLMGW
The “soluble fraction (log2)” value of the first is lower: -0.0444 for the first, 0.441 for the second.

Going from “HMDLYIILGLERSATLSDVRRAYRRLARKYHPGINPGDRNSASVFTRVSEAYQVLSDPEQRRRYDSR” to “HMVNEALDEFFVGLKNLYESATGKPAIAGAHFDGEPKTDFEKLMYLGYQIIRPAQAYPSALKAYERAIARS”, the “soluble fraction (log2)” value rises from -2.81 to -0.173.

Compared with “HMGKREKTKVANRQAILVAARAVFAELGYEAATVRDIIRGTDLASGTFYNYFKSKEEVFDALADDGA”, “HMNDPFVILGVSKDASQSEILEAYKQKRAYYQERVFDEGDEGAQAARMLTQLDDAYQQAMELSHES” is higher in “soluble fraction (log2)” value: -1.17 for the first, -0.151 for the second.

First: HMSDPTDRLVLEAALKALGEEERQVVLLHAASGLKHREIARDLGLPLSTVLSRYSRALKKLQRYLTEEGVH
Second: HMTNVYSLIGKRGIVVEDIDWQKGTGQVKIDGELWSVKTNEQINISKGTEVEVENIEGVKVFVKPI
The “soluble fraction (log2)” value of the first is lower: -0.77 for the first, 0.09 for the second.

“HMHPDALTEREREVLSLLADGLSNREIAARLVLALGTVKWYISVIYSKLGVTRRTQAIARARELHLV” and “HMSAVIGTATVTTSSGSLNLRESASLYSRVIRTIPRGATVDVLSRDTSWSRVRYAGSEGYVLNQYLTFQT” are within 0.2 log units of each other in “soluble fraction (log2)” value: -0.0971 for the first, -0.0809 for the second.

First: HMPYSKIALQISHLLKSHGVPLSNKQIYEKLINDFQLSINYSNLTNNILPRMNSDSSINVEKVTRGYWQY
Second: HMTSAIAEGTVIRLTQSTNIRESMSEDAPKVATAFSGEKVTVIMSYAEGWTKVTYGDKTGYIKTELL
The “soluble fraction (log2)” value of the first is lower: -0.634 for the first, -0.184 for the second.

Going from “HMRHSLAAALTELRRLAALDLGDFFRFEYVSHTDSLGGKQQAYTEGIRVSFGVYLGVNKKDRLNVDPVV” to “HMWTIDPLDWKTENADQIVEKVMSEAKENAIILLHDRYEASVEAALRIVDLLKEQGYTFVTADKLV”, the “soluble fraction (log2)” value rises from -3.44 to -0.257.

Going from “HMSTSIADNSSITYKVRKGDSLASIAKRHGVNINDVMRWNSVITKASQIQPGDMLTLYVRDS” to “HMTDVIADMLTRIRNAASSKHQTVDIPSSNLKKEIAKILLEEGYIRDFIEIDDKKQGIIRITL”, the “soluble fraction (log2)” value falls from 0.026 to -0.389.

In the case of “HMEQLIIQEELSGKRLDQLVSLLFPSLTRAHAQKLIKEGAVLVNEKPRKPAYAVMTGELLTVELPEPE”, the “soluble fraction (log2)” value is reported as -0.0616.
